Experimental data reported in publication PMC6915384, “Kinetic Parameter Estimation and Mathematical Modelling of Lipase Catalysed Biodiesel Synthesis in a Microreactor” (Micromachines, 2019).

Substrate: CO
Assay: initial rates of FAME formation in PTFE microreactor, GC; non-linear regression
Type: biochemical, Thermomyces lanuginosus
Details: transesterification, co-substrate sunflower oil (fatty acids constant; printed 1,488.15 mg/L), 40 °C, 0.01 mol/L potassium phosphate pH 7.4, double-substrate Michaelis-Menten, methanol range printed a

B1: lipase from Thermomyces lanuginosus (Lipolase 100L; Lipolase L100; TlL) (Thermomyces lanuginosus) (protein)
chain: EVSQDLFNQFNLFAQYSAAAYCGKNNDAPAGTNITCTGNACPEVEKADATFLYSFEDSGVGDVTGFLALDNTNKLIVLSFRGSRSIENWIGNLNFDLKEINDICSGCRGHDGFTSSWRSVADTLRQKVEDAVREHPDYRVVFTGHSLGGALATVAGADLRGNGYDIDVFSYGAPRVGNRAFAEFLTVQTGGTLYRITHTNDIVPRLPPREFGYSHSSPEYWIKSGTLVPVTRNDIVKIEGIDATGGNNQPNIPDIPAHLWYFGLIGTCL
notes: commercial liquid preparation Lipolase 100L (Sigma-Aldrich), free enzyme in phosphate buffer; mass 33,400 g/mol used for calculations (cited)
B1 showed a Km of 7.56 ± 2.77 mg/mL.
